Assays:
Assay in all cases: DELFIA Xpress PlGF sandwich immunoassay; tested substance at 5000 pg/mL
[1] = target: PlGF-1 (glycosylated), purified recombinant placental growth factor isoform 1 (human) (UniProt P49763)
[2] = target: PlGF-2 (glycosylated), purified recombinant placental growth factor isoform 2 (human)
[3] = target: PlGF-3 (non-glycosylated), purified recombinant placental growth factor isoform 3 (human) (UniProt P49763)

Sequence of PlGF-2 (glycosylated), purified recombinant placental growth factor isoform 2 (human) (chain, as listed by the source limits assumed): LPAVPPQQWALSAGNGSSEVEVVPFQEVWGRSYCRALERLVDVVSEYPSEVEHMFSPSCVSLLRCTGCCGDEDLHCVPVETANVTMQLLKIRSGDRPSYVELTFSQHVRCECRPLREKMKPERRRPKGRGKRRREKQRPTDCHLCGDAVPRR

Question: How did the Observed cross-reactivity (%) [1] turn out when “P1GF-1 antibody provided with the DELFIA Xpress kit (commercial DELFIA Xpress P1GF method, PerkinElmer)” was run?
Answer: Its Observed cross-reactivity (%) is 33%.

Question: And the Observed cross-reactivity (%) [2]?
Answer: Its Observed cross-reactivity (%) is 16%.

Question: What about the Observed cross-reactivity (%) [3] of the same substance?
Answer: The Observed cross-reactivity (%) was 5%.

From patent US20110294227A1
